Measured values reported in patent publication US20180339020A1.

Biological target: ephrin B3 expressed on CHO cells
Assay: inferred by the filing from ELISA, Octet and flow cytometry taken together

concentration that would saturate: > 10 µg/mL
Substance: wild-type (WT) human EphA4-Fc (Fc fusion)
